In the supplement of paper PMC7877785:
± gives the uncertainty stated by the source.

Assay: self-splicing fitness, log relative to wild type (ln ratio); higher = more splicing; Tetrahymena group I intron in knt gene, E. coli kanamycin selection, DiMSum; sequences stand for … in CUCUCU…GGAGGGAAAAGUUAUCAGGCAUGCACCUGGUAGCUAGUCUUUAAACCAAUAGAUUGCAUCGGUUUAAAAGGCAAGACCGUCAAAUUGCGGGAAAGGGGUCAACAGCCGUUCAGUACCAAGUCUCAGGGGAAACUUUGAGAUGGCCUUGCAAAGGGUAUGGUAAUAAGCUGACGGACAUGGUCCUAACCACGCAGCCAAGUCCUAAGUCAACAGAUCUUCUGUUGAUAUGGAUGCAGUUCACAGACUAAAUGUCGGUCGGGGAAGAUGUAUUCUUCUCAUAAGAUAUAGUCGGACCUCUCCUUAAUGGGAGCUAGCGGAUGAAGUGAUGCAACACUGGAGCCGCUGGGAACUAAUUUGUAUGCGAAAGUAUAUUGAUUAGUUUUGGAGUACUCGUGGUCG
Method in brief: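 Colonies from six replicate transformations of E. coli BL21(DE3) were pooled and amplicon-sequenced on an Illumina HiSeq 2500. The library placed an intron with all eight P1ex-region nucleotides randomised inside the knt kanamycin-resistance gene on pET-22b(+), and cells grew overnight at 37°C or 30°C on LB agar with or without 25 μg/mL kanamycin (plus 100 μg/mL carbenicillin, 50 μM IPTG, 0.2% rhamnose). Fitness is the DiMSum error-weighted combination of wild-type-normalised replicate fold changes, kanamycin versus none.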

For CUACAGCAAUAUUACGCUAU, the “self-splicing fitness (ln)” value (30 °C) was -4.01 ± 0.19 and the “self-splicing fitness (ln)” value (37 °C) was -2.6 ± 0.18.
With CUACAGCAAUAUUACGCUUU the “self-splicing fitness (ln)” value (30 °C) was -3.79 ± 0.25 and the “self-splicing fitness (ln)” value (37 °C) was -2.38 ± 0.16.
In the case of CUACAGCAAUAUUACGGAAC, the “self-splicing fitness (ln)” value (30 °C) is reported as -4.6 ± 0.34 and the “self-splicing fitness (ln)” value (37 °C) is reported as -3.47 ± 0.35.
For CUACAGCAAUAUUACGGACG, the “self-splicing fitness (ln)” value (30 °C) was -0.196 ± 0.072 and the “self-splicing fitness (ln)” value (37 °C) was 0.601 ± 0.1.
In the case of CUACAGCAAUAUUACGGACU, the “self-splicing fitness (ln)” value (30 °C) is reported as -1.76 ± 0.17 and the “self-splicing fitness (ln)” value (37 °C) is reported as -1.75 ± 0.19.
For CUACAGCAAUAUUACGGCAU, the “self-splicing fitness (ln)” value (30 °C) was -3.6 ± 0.23 and the “self-splicing fitness (ln)” value (37 °C) was -2.34 ± 0.23.
In the case of CUACAGCAAUAUUACGGCUU, the “self-splicing fitness (ln)” value (30 °C) is reported as -2.38 ± 0.15.
With CUACAGCAAUAUUACGGGAA the “self-splicing fitness (ln)” value (30 °C) was -2.88 ± 0.24 and the “self-splicing fitness (ln)” value (37 °C) was -2.28 ± 0.23.
With CUACAGCAAUAUUACGGGGC the “self-splicing fitness (ln)” value (30 °C) was -2.95 ± 0.2 and the “self-splicing fitness (ln)” value (37 °C) was -2.57 ± 0.22.
With CUACAGCAAUAUUACGGUCC the “self-splicing fitness (ln)” value (30 °C) was -2.72 ± 0.18 and the “self-splicing fitness (ln)” value (37 °C) was -2.15 ± 0.24.
With CUACAGCAAUAUUACGGUCG the “self-splicing fitness (ln)” value (30 °C) was -0.256 ± 0.068 and the “self-splicing fitness (ln)” value (37 °C) was 0.417 ± 0.082.
For CUACAGCAAUAUUACGUAGA, the “self-splicing fitness (ln)” value (30 °C) was -4.4 ± 0.21 and the “self-splicing fitness (ln)” value (37 °C) was -2.56 ± 0.14.
For CUACAGCAAUAUUACGUAGG, the “self-splicing fitness (ln)” value (30 °C) was -1.39 ± 0.059 and the “self-splicing fitness (ln)” value (37 °C) was -1.14 ± 0.093.
In the case of CUACAGCAAUAUUACGUCCG, the “self-splicing fitness (ln)” value (30 °C) is reported as -0.955 ± 0.095 and the “self-splicing fitness (ln)” value (37 °C) is reported as 0.368 ± 0.12.
With CUACAGCAAUAUUACGUUGA the “self-splicing fitness (ln)” value (30 °C) was -3.13 ± 0.17 and the “self-splicing fitness (ln)” value (37 °C) was -3.35 ± 0.21.
For CUAGAGCAAUAUUACGACAG, the “self-splicing fitness (ln)” value (30 °C) was 0.262 ± 0.087 and the “self-splicing fitness (ln)” value (37 °C) was 0.734 ± 0.12.
With CUAGAGCAAUAUUACGAGCA the “self-splicing fitness (ln)” value (37 °C) was -3.27 ± 0.31.
In the case of CUAGAGCAAUAUUACGAGGA, the “self-splicing fitness (ln)” value (30 °C) is reported as -2.99 ± 0.2 and the “self-splicing fitness (ln)” value (37 °C) is reported as -2.53 ± 0.28.
In the case of CUAGAGCAAUAUUACGAUCG, the “self-splicing fitness (ln)” value (30 °C) is reported as 0.45 ± 0.066 and the “self-splicing fitness (ln)” value (37 °C) is reported as 0.245 ± 0.088.
With CUAGAGCAAUAUUACGAUCU the “self-splicing fitness (ln)” value (30 °C) was -4.31 ± 0.34 and the “self-splicing fitness (ln)” value (37 °C) was -2.29 ± 0.34.
With CUAGAGCAAUAUUACGAUGG the “self-splicing fitness (ln)” value (30 °C) was -0.193 ± 0.11 and the “self-splicing fitness (ln)” value (37 °C) was 0.418 ± 0.14.
For CUAGAGCAAUAUUACGCAAA, the “self-splicing fitness (ln)” value (30 °C) was -2.62 ± 0.27 and the “self-splicing fitness (ln)” value (37 °C) was -1.27 ± 0.4.
With CUAGAGCAAUAUUACGCAGU the “self-splicing fitness (ln)” value (30 °C) was -2.58 ± 0.12 and the “self-splicing fitness (ln)” value (37 °C) was -3.17 ± 0.2.
For CUAGAGCAAUAUUACGCAUU, the “self-splicing fitness (ln)” value (30 °C) was -3.2 ± 0.18 and the “self-splicing fitness (ln)” value (37 °C) was -2.2 ± 0.25.
With CUAGAGCAAUAUUACGCCAU the “self-splicing fitness (ln)” value (30 °C) was -3.39 ± 0.19 and the “self-splicing fitness (ln)” value (37 °C) was -3.11 ± 0.29.
With CUAGAGCAAUAUUACGCCGC the “self-splicing fitness (ln)” value (30 °C) was -2.52 ± 0.37.
With CUAGAGCAAUAUUACGCGAU the “self-splicing fitness (ln)” value (30 °C) was -0.892 ± 0.084 and the “self-splicing fitness (ln)” value (37 °C) was -0.253 ± 0.11.
With CUAGAGCAAUAUUACGCUAC the “self-splicing fitness (ln)” value (30 °C) was -2.83 ± 0.27.
With CUAGAGCAAUAUUACGCUAU the “self-splicing fitness (ln)” value (37 °C) was -2.47 ± 0.48.
In the case of CUAGAGCAAUAUUACGGAAG, the “self-splicing fitness (ln)” value (30 °C) is reported as -0.402 ± 0.07 and the “self-splicing fitness (ln)” value (37 °C) is reported as -0.264 ± 0.1.
For CUAGAGCAAUAUUACGGAGA, the “self-splicing fitness (ln)” value (30 °C) was -2.51 ± 0.26 and the “self-splicing fitness (ln)” value (37 °C) was -2.51 ± 0.48.
In the case of CUAGAGCAAUAUUACGGCAG, the “self-splicing fitness (ln)” value (30 °C) is reported as 0.0667 ± 0.08 and the “self-splicing fitness (ln)” value (37 °C) is reported as 0.49 ± 0.11.
For CUAGAGCAAUAUUACGGGGA, the “self-splicing fitness (ln)” value (30 °C) was -2.35 ± 0.22 and the “self-splicing fitness (ln)” value (37 °C) was -3.06 ± 0.47.
For CUAGAGCAAUAUUACGGGGG, the “self-splicing fitness (ln)” value (30 °C) was -2.64 ± 0.24 and the “self-splicing fitness (ln)” value (37 °C) was -1.11 ± 0.27.
For CUAGAGCAAUAUUACGGUAC, the “self-splicing fitness (ln)” value (30 °C) was -3.01 ± 0.33.
In the case of CUAGAGCAAUAUUACGUAAC, the “self-splicing fitness (ln)” value (30 °C) is reported as -4.96 ± 0.38 and the “self-splicing fitness (ln)” value (37 °C) is reported as -2.32 ± 0.19.
For CUAGAGCAAUAUUACGUGUA, the “self-splicing fitness (ln)” value (30 °C) was -4.57 ± 0.46 and the “self-splicing fitness (ln)” value (37 °C) was -2.41 ± 0.23.
With CUAGAGCAAUAUUACGUGUU the “self-splicing fitness (ln)” value (30 °C) was -3.3 ± 0.26 and the “self-splicing fitness (ln)” value (37 °C) was -2.8 ± 0.3.
In the case of CUAUAGCAAUAUUACGAAAA, the “self-splicing fitness (ln)” value (37 °C) is reported as -2.17 ± 0.29.
For CUAUAGCAAUAUUACGAACG, the “self-splicing fitness (ln)” value (30 °C) was 0.0017 ± 0.29 and the “self-splicing fitness (ln)” value (37 °C) was -0.388 ± 0.33.
